One molecule from article PMC6246682, “Structural Basis of Tau Interaction With BIN1 and Regulation by Tau Phosphorylation” (Frontiers in Molecular Neuroscience, 2018) can be followed below.

The target of this test is T1, BIN1 SH3 domain (UniProt O00499 513-593).
T1 construct: C-terminal SH3 domain of bridging integrator-1 (BIN1, amphiphysin 2); printed residues E556, E557, W562, F588 fit the 593-residue BIN1 isoform 1; Used 15N-labelled in the titrations and relaxation experiments; Construct limits, host and tags are in Malki et al., 2017; PDB 5i22 is a cited NMR structure of BIN1 SH3 in a complex, used as the starting point of the docking; also called SH3 domain of …
T1 sequence: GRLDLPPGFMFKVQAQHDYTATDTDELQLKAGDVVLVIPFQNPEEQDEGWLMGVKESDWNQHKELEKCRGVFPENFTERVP
The test can be described thus: NMR titration; 70 μM 15N-BIN1 SH3 titrated with unlabeled Tau (210–240) peptides (35 to 840 μM); 1H,15N HSQC chemical shift changes; 50 mM phosphate buffer pH 7.3, 20°C; Kd averaged over 7 resonances. The settings on record: both partners purified.

B1: Tau (210–240) peptide with K224 and K225 mutated into alanines (peptide, UniProt P10636-8 210-240, looked up)
peptide: SRTPSLPTPPTREPAAVAVVRTPPKSPSSAK
notes: Tau residues 210-240 with K224A and K225A; probably as m2; also called the mutated peptide
For the molecule B1, the Kd stood at 429 ± 94 µM.

In general, Kd refers to a measure of binding affinity in units of concentration.
